The target in assay [1] is eIF4E4(iv), an approximately 5 kDa region of the extended N-terminal domain of Leishmania major eIF4E4 (Leishmania major). The assay is described as follows: MST; labelled eIF4E4(iv) held constant, non-labelled PABP1 section varied (16 tubes); Nanotemper Monolith NT.115.
For assay [2], the target named is eIF4G (Saccharomyces cerevisiae) (UniProt P39935). The conditions noted are these: cited from earlier work.
Assay [3] has as its target full-length Leishmania eIF4G3 (Leishmania major) (UniProt Q4QEK5). The assay is described as follows: fluorescence polarisation; fluorescence anisotropy, PTI QuantaMaster; Alexa-647-labelled eIF4G3, eIF4E4(v)::PABP1(J) added.
Assay [4] addresses T1, PABP1(J), the PABC domain of Leishmania major PABP1 prepared as segment J (Leishmania major, UniProt E9AFX7 482-560).
T1 construct: 15N,13C-labelled form used in NMR; also called PABP1 PABC domain; PABC1; source: E. coli NiCo21(DE3), synthetic reading frame, purified (cobalt IDA resin, gel filtration); also co-expressed with eIF4E4(v) from a dual expression plasmid
T1 sequence: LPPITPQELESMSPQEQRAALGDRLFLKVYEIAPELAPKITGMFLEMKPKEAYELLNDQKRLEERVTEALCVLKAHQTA
The assay is described as follows: MST; FITC-labelled synthetic 14mer peptides with PABP1(J). The conditions noted are these: both partners purified.

The target in assay [5] is Leishmania major eIF4E4 segment (iv) (Leishmania major). The assay is described as follows: SPR; eIF4E4(iv) immobilised by amine coupling on a Biacore CM5 chip, PABP1(J) passed over, Biacore T200; homogeneous 1:1 binding model.
Another assay deals with eIF4E4(iv). In words: Microscale thermophoresis of mutated PABP1(J) F525A with eIF4E4(iv). The class given is binding, Leishmania major. The procedure:
Microscale thermophoresis experiments were performed using eIF4E4(iv) or eIF4G3 labelled with a fluorescent tag (Monolith Protein Labeling Kit Red-Maleimide), or the eIF4G3 peptide […] labeled with fluorescein-5-isothiocyanate. The concentration of the fluorescently labelled protein (eIF4E4(iv)) was held constant, while the concentration of non-labelled ligand protein was varied. The experiment was conducted by preparing 16 tubes with various ratios of the interacting labelled/non-labelled proteins. The solutions were introduced into capillaries, which were then loaded into a Nanotemper Monolith NT.115 instrument for measurement. […] In order to maximise confidence in the calculated dissociation constant values (based on kON and kOFF values), two types of model were fitted to the raw data: a homogeneous 1:1 binding model, and a heterogeneous 1:1 two-ligand model. […] Fluorescence anisotropy measurements were performed using a PTI QuantaMaster fluorimeter. […]
We wanted to establish a quantitative understanding of the relative significance of interactions between the Leishmania cap-binding complex factors eIF4E4, eIF4G3 and PABP1 using protein domains or full-length proteins, rather than peptides. […]

For assay [6], the target named is T1, PABP1(J), the PABC domain of Leishmania …. The assay is described as follows: MST; labelled eIF4E4(iv) held constant, non-labelled PABP1 section varied (16 tubes); Nanotemper Monolith NT.115. The conditions noted are these: both partners purified.
Another assay addresses eIF4E4(v):PABP1(J). The assay is described as follows: Fluorescence anisotropy, Alexa-647-labelled eIF4G3 binding to the complex eIF4E4(v):PABP1(J). Details: species or system Leishmania. The conditions noted are these: Alexa-647-labelled eIF4G3, eIF4E4(v)::PABP1(J) added, read-out: KD (average of calculated KD values). The procedure:
(§1) Microscale thermophoresis experiments were performed using eIF4E4(iv) or eIF4G3 labelled with a fluorescent tag (Monolith Protein Labeling Kit Red-Maleimide), or the eIF4G3 peptide […] labeled with fluorescein-5-isothiocyanate. The concentration of the fluorescently labelled protein (eIF4E4(iv)) was held constant, while the concentration of non-labelled ligand protein was varied. The experiment was conducted by preparing 16 tubes with various ratios of the interacting labelled/non-labelled proteins. The solutions were introduced into capillaries, which were then loaded into a Nanotemper Monolith NT.115 instrument for measurement. For the SPR experiments, eIF4E4(iv) was immobilized via amine coupling to a Biacore CM5 sensor chip (GE Healthcare Life Sciences) and titrations against PABP1(J) were performed in a Biacore T200 instrument. In order to maximise confidence in the calculated dissociation constant values (based on kON and kOFF values), two types of model were fitted to the raw data: a homogeneous 1:1 binding model, and a heterogeneous 1:1 two-ligand model. […] Fluorescence anisotropy measurements were performed using a PTI QuantaMaster fluorimeter. […]
(§2) Figure 5. Quantitative characterization of interactions of Leishmania cap-complex proteins. […] Fluorescence anisotropy measurements (C) detected binding of Alexa-647-labelled eIF4G3 to the complex eIF4E4(v):PABP1(J). […]

Another assay has as its system PABP1. The assay is described as follows: Microscale thermophoresis, Alexa-647-labelled eIF4G3 with PABP1. The class given is binding, Leishmania. The conditions noted are these: Alexa-647-labelled eIF4G3 and PABP1. The procedure: as §1, §2

Ends that are not written are not given here.

Chain of eIF4G (Saccharomyces cerevisiae) (P39935 whole entry): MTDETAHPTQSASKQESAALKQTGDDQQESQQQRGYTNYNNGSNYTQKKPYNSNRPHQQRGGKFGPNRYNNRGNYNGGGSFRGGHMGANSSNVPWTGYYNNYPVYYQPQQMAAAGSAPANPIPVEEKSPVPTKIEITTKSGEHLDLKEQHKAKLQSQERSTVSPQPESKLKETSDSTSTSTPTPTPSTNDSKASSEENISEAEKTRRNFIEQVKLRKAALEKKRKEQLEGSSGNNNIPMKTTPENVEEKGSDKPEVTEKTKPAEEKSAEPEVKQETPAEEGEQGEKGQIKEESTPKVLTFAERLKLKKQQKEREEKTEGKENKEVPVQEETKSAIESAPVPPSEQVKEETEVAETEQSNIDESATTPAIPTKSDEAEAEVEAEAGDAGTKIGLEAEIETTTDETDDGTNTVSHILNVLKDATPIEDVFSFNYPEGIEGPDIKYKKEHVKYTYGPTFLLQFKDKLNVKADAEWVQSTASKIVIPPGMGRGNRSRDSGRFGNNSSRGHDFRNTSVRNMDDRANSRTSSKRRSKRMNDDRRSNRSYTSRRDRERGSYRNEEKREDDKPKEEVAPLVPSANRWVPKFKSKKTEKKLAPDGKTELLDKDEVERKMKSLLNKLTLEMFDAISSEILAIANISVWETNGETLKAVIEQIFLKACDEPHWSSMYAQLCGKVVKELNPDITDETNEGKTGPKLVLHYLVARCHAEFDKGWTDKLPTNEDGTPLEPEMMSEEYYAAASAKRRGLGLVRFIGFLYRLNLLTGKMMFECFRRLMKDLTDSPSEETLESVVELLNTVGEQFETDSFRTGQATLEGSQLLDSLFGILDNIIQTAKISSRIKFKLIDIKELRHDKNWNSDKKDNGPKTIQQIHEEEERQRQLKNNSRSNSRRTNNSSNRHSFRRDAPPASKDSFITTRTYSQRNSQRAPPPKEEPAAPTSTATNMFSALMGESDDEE

In assay [1], “PABP1(J) F525A (from UniProt E9AFX7) (domain or fragment)” had a dissociation constant (Kd) of 550 nM.

Regarding eIF4E (from UniProt P07260), the Kd in [2] is 2.3 nM.

The molecule “heterodimeric complex eIF4E4(v):PABP1(J) (from UniProt E9AFX7 482-560)” gave a dissociation constant Kd in assay [3] of 340 nM.

B1: eIF4E4 PAM2-motif FITC-labelled 14mer peptide, E146A (peptide)
peptide: HHMNPNATAFMPGR
modifications: also: FITC label
notes: source: synthetic peptide (Thermo Fisher Scientific, HPLC-purified to 98%)
B1 returned an equilibrium dissociation constant (Kd) in assay [4] of 163 ± 16.4 nM.

B2: eIF4E4 PAM2-motif FITC-labelled 14mer peptide, M148A (peptide)
peptide: HHMNPNATEFAPGR
modifications: also: FITC label
notes: as for B1
B2: the affinity in [4], expressed as Kd, was 62.8 ± 3.1 nM.

B3: eIF4E4 PAM2-motif FITC-labelled 14mer peptide, N143A (peptide)
peptide: HHMNPAATEFMPGR
modifications: also: FITC label
notes: as for B1
Turning to B3, binding in assay [4] was characterised by a dissociation constant (Kd) of 69.2 ± 4.9 nM.

B4: Leishmania major PABP1 segment J (PABC domain) (domain or fragment)
chain: LPPITPQELESMSPQEQRAALGDRLFLKVYEIAPELAPKITGMFLEMKPKEAYELLNDQKRLEERVTEALCVLKAHQTA
modifications: here or on the partner: 13C,15N-labelled in the NMR experiment
In the case of B4, the Kd in assay [5] worked out at 160 nM.

B5: PABP1(J) F525A: PABC domain of Leishmania PABP1 (segment J) with phenylalanine 525 mutated to alanine (protein)
chain: LPPITPQELESMSPQEQRAALGDRLFLKVYEIAPELAPKITGMALEMKPKEAYELLNDQKRLEERVTEALCVLKAHQTA
In the case of B5, the Kd on eIF4E4(iv) (eIF4E4(iv) + PABP1(J) F525A, average of three independent titrations) came to 550 nM. In addition, the “KD relative to the non-mutated PABP1(J) value” on eIF4E4(iv) (ratio of KD values) is 25 times.

B6: eIF4E4 PAM2-motif FITC-labelled 14mer peptide, F147A (peptide)
peptide: HHMNPNATEAMPGR
modifications: also: FITC label
notes: also called F147A mutant peptide; source: synthetic peptide (Thermo Fisher Scientific, HPLC-purified to 98%)
Molecule B6 registered an equilibrium dissociation constant (Kd) in [4] of 127 ± 13.4 nM.

B7: eIF4E4 PAM2-motif FITC-labelled 14mer peptide, M140A (peptide)
peptide: HHANPNATEFMPGR
modifications: also: FITC label
notes: as for B1
As for B7, in assay [4], binding was characterised by a dissociation constant (Kd) of 34.3 ± 1.3 nM.

As for PTRFSPATVPRHHMNPNATEFMPGRRNGPDGGLEALPTSTAD (domain or fragment, also: Alexa 647 label (Red-Maleimide) for MST), in [6], the dissociation constant Kd worked out at 22 nM.

B8: eIF4E4 PAM2-motif FITC-labelled 14mer peptide, WT (peptide)
peptide: HHMNPNATEFMPGR
modifications: also: FITC label
notes: also called 'wild-type' peptide; 14mer eIF4E4 peptide; source: synthetic peptide (Thermo Fisher Scientific, HPLC-purified to 98%)
B8 came in with a Kd in [4] of 33 ± 0.9 nM.

B9: eIF4G3: full-length Leishmania eIF4G3, Alexa-647-labelled (protein)
chain: MQFTVEQIRSVRNNYLEPPYPGFSLDEVVRRRRLTQTKLVRGENAWVAKGTAQTTEEWVQRLLHGTLNKLTEENKDIMIDKLLTKELFATEDIMNMVVNIIFKKALDEPENSKLYAGVCHSLALYEAKVLRDGHKGERPQSQLRDAIISTAQHEFRTLSKELSKMEDKSEEELEYERSNVMRRKRSNMRFIGELYLCTALTHSTMFTVMDLTMRCSDKTGFPSSENIELLAALLNTIGDRLDKNHKKTLDPYFTSLENFNKKSDCPYPPRIRFKIMDLLDLRKRGWGLKPKPVKAALPPSHGKDKKYATAPPPKKGGRDQGSAAAASKSWRDAATTKTGTAAAPAPSADKGLNGRGTSSAAPAANTAALSSSAASTAAATAPAGASFRDEASPQVPLVKFELRVASMFQEWVADRTNDVILHWVDQFNTCDRFFESESELCVAVAQEVIHSACTTTRKDAQREAFSFLVVGLYMIDTEVFDGFASALASAIEDGLLEDVPKFGERFMSMLRLTSTEQETRADVYFDAANVLRLTYNRLESPDDSAVDTLMSFWDRVPLPSTDEENMIRMDLDVVYSLCNPEGVQDGLEKLLSRIIHSMLQMQLMDAEVLDEFLCLDVEDGLCAKVIADYKERFPK
modifications: Alexa 647 label (Monolith Protein Labeling Kit Red-Maleimide) in the fluorescence anisotropy and MST experiments; left off: His12, end not stated, kept
notes: full-length Leishmania eIF4G3, Alexa-647-labelled
Consider B9, for which the equilibrium dissociation constant (Kd) on eIF4E4(v):PABP1(J) was 340 nM. Further, in the assay on PABP1, the “binding” value is reported as “no binding could be detected”.
